Measurements published in patent publication US20100261182A1.

B1: His-PPM1E (PPM1E phosphatase with an N-terminal His-tag, expressed in Sf9 cells) (protein)
chain: MAGCIPEEKTYRRFLELFLGEFRGPCGGGEPEPEPEPEPEPEPESEPEPEPELVEAEAAEASVEEPGEEAATVAATEEGDQEQDPEPEEEAAVEGEEEEEGAATAAAAPGHSAVPPPPPQLPPLPPLPRPLSERITREEVEGESLDLCLQQLYKYNCPSFLAAALARATSDEVLQSDLSAHYIPKETDGTEGTVEIETVKLARSVFSKLHEICCSWVKDFPLRRRPQLYYETSIHAIKNMRRKMEDKHVCIPDFNMLFNLEDQEEQAYFAVFDGHGGVDAAIYASIHLHVNLVRQEMFPHDPAEALCRAFRVTDERFVQKAARESLRCGTTGVVTFIRGNMLHVAWVGDSQVMLVRKGQAVELMKPHKPDREDEKQRIEALGGCVVWFGAWRVNGSLSVSRAIGDAEHKPYICGDADSASTVLDGTEDYLILACDGFYDTVNPDEAVKVVSDHLKENNGDSSMVAHKLVASARDAGSSDNITVIVVFLRDMNKAVNVSEESDWTENSFQGGQEDGGDDKENHGECKRPWPQHQCSAPADLGYDGRVDSFTDRTSLSPGSQINVLEDPGYLDLTQIEASKPHSAQFLLPVEMFGPGAPKKANLINELMMEKKSVQSSLPEWSGAGEFPTAFNLGSTGEQIYRMQSLSPVCSGLENEQFKSPGNRVSRLSHLRHHYSKKWHRFRFNPKFYSFLSAQEPSHKIGTSLSSLTGSGKRNRIRSSLPWRQNSWKGYSENMRKLRKTHDIPCPDLPWSYKIE
B2: Full length PPM1E (SEQ ID NO: 1) overexpressed in H4 neuroglioma cells and rat hippocampal primary neurons (protein)
chain: MAGCIPEEKTYRRFLELFLGEFRGPCGGGEPEPEPEPEPEPEPESEPEPEPELVEAEAAEASVEEPGEEAATVAATEEGDQEQDPEPEEEAAVEGEEEEEGAATAAAAPGHSAVPPPPPQLPPLPPLPRPLSERITREEVEGESLDLCLQQLYKYNCPSFLAAALARATSDEVLQSDLSAHYIPKETDGTEGTVEIETVKLARSVFSKLHEICCSWVKDFPLRRRPQLYYETSIHAIKNMRRKMEDKHVCIPDFNMLFNLEDQEEQAYFAVFDGHGGVDAAIYASIHLHVNLVRQEMFPHDPAEALCRAFRVTDERFVQKAARESLRCGTTGVVTFIRGNMLHVAWVGDSQVMLVRKGQAVELMKPHKPDREDEKQRIEALGGCVVWFGAWRVNGSLSVSRAIGDAEHKPYICGDADSASTVLDGTEDYLILACDGFYDTVNPDEAVKVVSDHLKENNGDSSMVAHKLVASARDAGSSDNITVIVVFLRDMNKAVNVSEESDWTENSFQGGQEDGGDDKENHGECKRPWPQHQCSAPADLGYDGRVDSFTDRTSLSPGSQINVLEDPGYLDLTQIEASKPHSAQFLLPVEMFGPGAPKKANLINELMMEKKSVQSSLPEWSGAGEFPTAFNLGSTGEQIYRMQSLSPVCSGLENEQFKSPGNRVSRLSHLRHHYSKKWHRFRFNPKFYSFLSAQEPSHKIGTSLSSLTGSGKRNRIRSSLPWRQNSWKGYSENMRKLRKTHDIPCPDLPWSYKIE

Tests used:
[1] = target: T1, 5-TAMRA-MpTPpYV-NH2 substrate peptide (bis-phosphorylated)
T1 chain: MTPYV

[2] = target: 5-TAMRA-MpTPpYV-NH2 substrate peptide (bis-phosphorylated); assay: cell-based or functional assay
[3] = target: CaMKII alpha isoform (about 50 kDa), phosphorylated at Thr286
[4] = target: CaMKII beta isoform (about 57 kDa), phosphorylated at Thr286

Row | Binder | polarization at a concentration of PPM1E of 33 nM [1] | polarization at a concentration of PPM1E of 0.8 µM [1] | IC50 (EC50) of the PPM1E titration, decrease of polarization [2] | dephosphorylation of pCaMKII alpha band (western blot) [3] | phosphorylation of CaMKII relative to wildtype HC neurons (western blot) [3] | dephosphorylation of pCaMKII beta band (western blot) [4] | phosphorylation of CaMKII relative to wildtype HC neurons (western blot) [4]
1 | B1 | a polarization of about 147 mP (milli-Polarization) was measured | the polarization decreased to about 123 mP | 160 nM | – | – | – | –
2 | B2 | – | – | – | PPM1E phosphatase is dephosphorylating the beta isoform (57 kDa) as well as the alpha isoform (50 kDa) of CaMKII | the phosphorylation of CaMKII is decreasing to 50% of the phosphorylation status of wildtype cells by increasing the level of PPM1E expression 12 times | PPM1E phosphatase is dephosphorylating the beta isoform (57 kDa) as well as the alpha isoform (50 kDa) of CaMKII | the phosphorylation of CaMKII is decreasing to 50% of the phosphorylation status of wildtype cells by increasing the level of PPM1E expression 12 times
